For the series, the target named is ΔG-loop Polγ holoenzyme (Homo sapiens, UniProt P54098;Q9UHN1 26-760+770-1239;26-485, internal_change). Briefly: EMSA; 10 mM Mg2+; affinity not affected by deletion; EMSA: 40 mM Tris-HCl pH 7.9, 60 mM NaCl, 10 mM MgCl2, 5% glycerol, 20 mM 2-mercaptoethanol, 0.1 mg/ml BSA, 150 nM Cy3 scaffold, 10 min room temperature; 0.5% agarose, 0.5X TBE, 4 °C. As to conditions: protein: recombinant; tags: N-terminal His (both subunits); copies: 1;2; label: 5'-Cy3 on DNA24; primer-template, 24 nt 5' template overhang. (In general: Mobility shift assays separate free from complexed probe on a gel.)

The values that follow come from paper PMC10752894, “Structural basis for DNA proofreading” (Nature Communications, 2023).

Sequence of ΔG-loop Polγ holoenzyme (P54098 other isoform, or with tags, fused parts or gaps | mutant, chain 1 of 2): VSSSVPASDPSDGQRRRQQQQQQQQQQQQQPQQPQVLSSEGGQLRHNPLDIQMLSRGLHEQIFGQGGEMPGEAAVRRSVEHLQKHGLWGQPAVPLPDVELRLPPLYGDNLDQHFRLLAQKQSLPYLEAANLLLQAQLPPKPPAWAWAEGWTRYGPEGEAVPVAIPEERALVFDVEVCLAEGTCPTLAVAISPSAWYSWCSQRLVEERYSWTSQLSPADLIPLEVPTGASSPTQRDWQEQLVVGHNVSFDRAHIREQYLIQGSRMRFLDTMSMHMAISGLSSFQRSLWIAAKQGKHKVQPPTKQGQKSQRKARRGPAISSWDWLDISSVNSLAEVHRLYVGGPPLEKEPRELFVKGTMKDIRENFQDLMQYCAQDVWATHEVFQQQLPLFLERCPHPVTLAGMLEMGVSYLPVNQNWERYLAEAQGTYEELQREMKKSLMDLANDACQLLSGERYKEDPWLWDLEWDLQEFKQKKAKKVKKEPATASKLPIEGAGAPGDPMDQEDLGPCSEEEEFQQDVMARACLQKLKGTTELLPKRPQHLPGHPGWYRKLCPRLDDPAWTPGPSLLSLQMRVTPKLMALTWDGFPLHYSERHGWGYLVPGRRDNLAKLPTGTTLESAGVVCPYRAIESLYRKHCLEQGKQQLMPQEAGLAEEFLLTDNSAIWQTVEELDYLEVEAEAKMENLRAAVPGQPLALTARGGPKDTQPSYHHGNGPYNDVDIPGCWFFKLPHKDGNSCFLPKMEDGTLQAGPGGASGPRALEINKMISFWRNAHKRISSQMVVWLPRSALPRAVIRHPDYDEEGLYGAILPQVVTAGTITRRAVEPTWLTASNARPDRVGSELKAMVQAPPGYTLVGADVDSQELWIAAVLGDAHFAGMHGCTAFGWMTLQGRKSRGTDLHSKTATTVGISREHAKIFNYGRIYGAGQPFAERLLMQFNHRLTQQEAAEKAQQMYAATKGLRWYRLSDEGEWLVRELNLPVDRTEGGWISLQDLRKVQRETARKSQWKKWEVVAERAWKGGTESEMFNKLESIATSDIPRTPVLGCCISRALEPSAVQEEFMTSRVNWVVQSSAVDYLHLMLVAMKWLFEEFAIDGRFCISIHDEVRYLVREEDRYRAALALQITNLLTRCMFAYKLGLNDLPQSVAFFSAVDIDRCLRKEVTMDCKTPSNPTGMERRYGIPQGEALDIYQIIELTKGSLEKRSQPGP
Sequence of ΔG-loop Polγ holoenzyme (Q9UHN1 26-485, stated change not applied, chain 2 of 2): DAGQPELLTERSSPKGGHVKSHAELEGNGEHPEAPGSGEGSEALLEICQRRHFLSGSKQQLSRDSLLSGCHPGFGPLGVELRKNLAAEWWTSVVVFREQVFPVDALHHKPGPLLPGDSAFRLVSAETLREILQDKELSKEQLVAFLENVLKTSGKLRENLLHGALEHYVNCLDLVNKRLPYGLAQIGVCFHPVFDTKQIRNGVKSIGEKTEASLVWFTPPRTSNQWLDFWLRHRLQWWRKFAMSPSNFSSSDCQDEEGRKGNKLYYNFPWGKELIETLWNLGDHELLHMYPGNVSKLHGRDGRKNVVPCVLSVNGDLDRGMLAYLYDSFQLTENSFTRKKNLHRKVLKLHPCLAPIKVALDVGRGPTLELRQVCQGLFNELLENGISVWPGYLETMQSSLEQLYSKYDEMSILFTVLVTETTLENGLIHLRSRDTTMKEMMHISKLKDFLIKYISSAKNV

B1: DNA24/DNA24TS (dsDNA)
DNA 1: GGTACAACTTGACGACATAGCGTG
DNA 2: CGGTCGAGTCACGACTCCGATTATCACGCTATGTCGTCAAGTTGTACC
Take B1: the binding result is reported as “binds”.
